US20190010249A1 (Ablynx, published 2019)

Assays:
[1] = target: T1, human multimeric vWF (purified vWF HaemateP) (human, UniProt P04275 764-2813); assay: Gyrolab solution affinity, 5 pM caplacizumab pre-incubated with vWF dilution series; liquid formulation
T1 construct: vWF purified from HaemateP by size-exclusion chromatography; also called multimeric target vWF; purified HaemateP
Excerpt: (§1) This assay measures the inhibition of ristocetin-induced binding of von Willebrand Factor (vWF) to bound platelet by caplacizumab. [0395] c) The RICO assay is used as pharmacodynamics marker for the pharmacological activity of caplacizumab. The assay measures the rate and degree to which human lyophilized platelets form aggregates after the addition of the antibiotic ristocetin, which mimics shear-induced activation of vWF. [0396] d) Gyrolab-based assay analyses the kinetic interactions of caplacizumab with its multimeric target vWF and determines the affinity constant of caplacizumab to human multimeric vWF. Briefly, affinity determination on the Gyroloab platform was established as follows: Gyrolab Bioaffy 1000 CDs were used. As capture tool, 3000 nM in-house biotinylated purified vWF (purified HaemateP using size-exclusion chromatography) was applied on the columns which were pre-packed with streptavidin-coated beads. Filter-sterilized D-PBS containing 0.01% Tween-20 was used for dilution of the capture tool. […] Free caplacizumab was detected with 50 nM AlexaFluor647-labeled anti-caplacizumab monoclonal antibody diluted in Rexxip F buffer (commercially available detection buffer). […]

[2] = target: T1, human multimeric vWF (purified vWF …); assay: Gyrolab solution affinity, 5 pM caplacizumab pre-incubated with vWF dilution series; lyophilized formulation
Excerpt: as §1

B1: 12A02H1-3a-12A02H1 (ALX-0081) (VHH)
chain: EVQLVESGGGLVQPGGSLRLSCAASGRTFSYNPMGWFRQAPGKGRELVAAISRTGGSTYYPDSVEGRFTISRDNAKRMVYLQMNSLRAEDTAVYYCAAAGVRAEDGRVRTLPSEYTFWGQGTQVTVSSAAAEVQLVESGGGLVQPGGSLRLSCAASGRTFSYNPMGWFRQAPGKGRELVAAISRTGGSTYYPDSVEGRFTISRDNAKRMVYLQMNSLRAEDTAVYYCAAAGVRAEDGRVRTLPSEYTFWGQGTQVTVSS
notes: Bivalent Nanobody: a single chain of two 12A02H1 domains joined by an AAA linker; It was tested as samples from different formulations and storage conditions; also called caplacizumab; anti-vWF Nanobody caplacizumab
Kd [1]: 6.84 pM
Kd [2]: 4.46 pM
